Laboratory results as given in patent US20200231684A1 (published 2020).
Numbering of substitutions follows the chain as printed.

T1: human IL-1R1 (human, UniProt P14778 18-336, limits assumed)
T1 construct: also called IL-1RI
T1 sequence (looked up): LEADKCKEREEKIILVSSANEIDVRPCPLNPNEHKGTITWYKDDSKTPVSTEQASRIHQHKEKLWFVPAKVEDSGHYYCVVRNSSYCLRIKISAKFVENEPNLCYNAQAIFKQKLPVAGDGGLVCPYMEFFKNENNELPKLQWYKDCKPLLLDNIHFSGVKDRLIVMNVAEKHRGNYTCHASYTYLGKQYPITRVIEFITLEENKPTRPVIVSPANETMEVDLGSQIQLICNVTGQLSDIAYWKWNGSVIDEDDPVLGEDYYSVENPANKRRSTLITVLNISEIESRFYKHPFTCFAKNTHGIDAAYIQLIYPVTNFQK

T2: mouse IL-36R (mouse, UniProt Q9ERS7 22-338)
T2 sequence (looked up): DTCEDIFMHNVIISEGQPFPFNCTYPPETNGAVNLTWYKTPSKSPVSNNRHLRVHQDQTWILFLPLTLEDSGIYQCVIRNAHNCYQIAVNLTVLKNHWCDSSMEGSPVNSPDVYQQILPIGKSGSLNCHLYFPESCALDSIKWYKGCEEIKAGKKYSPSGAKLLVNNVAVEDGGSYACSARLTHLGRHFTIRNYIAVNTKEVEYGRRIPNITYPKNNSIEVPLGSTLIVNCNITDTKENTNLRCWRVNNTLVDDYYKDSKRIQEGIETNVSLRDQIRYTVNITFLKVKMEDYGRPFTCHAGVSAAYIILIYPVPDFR

B1: chimeric antibody of 73F6 (antibody, V domains shown)
VH: QVQLKESGPGLVAPSQSLSITCTVSGFSLTNYAVHWVRQFPGKGLEWLGVIWSDGSTDYNAPFKSRLSINKDNSKSQVFFKMNSLQTDDTAIYYCARKGGYSGSWFAYWGQGTLVTVSA
VL: DIVMTQSQKFLSTSVGVRVSVTCKASQDVGTNVLWYQQKIGQSPKALIYSASYRHSGVPDRFTGSGSGTDFTLIITNVQSEDLAEYFCQQYSRYPLTFGPGTKLELK
notes: No own label printed; also called chimeric 73F6
B2: chimeric antibody of 172C8 (antibody, V domains shown)
VH: EVQLQQSGPELVKPGASVKLSCKASGYTFTDNYMNWVRQSHGKSLEWIGRVNPSNGDTKYNQNFKGKATLTVDKSLSTAYMQLNGLTSEDSAVYYCGRTKNFYSSYSYDDAMDYWGQGTSVTVSS
VL: DIQMTQSPASQSASLGESVTFTCLASQTIGTWLAWYQQRPGKSPQLLIYAATSLADGVPSRFSGSGSGTQFSFNIRSLQAEDFASYYCQQVYTTPLTFGGGTKLEIK
notes: No own label printed; also called chimeric 172C8
B3: chimeric antibody of 67E7 (antibody, V domains shown)
VH: EVQLQQSGAEFVRPGASVKFSCTASGFNIKDDYIHWVRQRPEQGLEWVGRIDPANGNTKYAPKFQDKATITADTSSNTAYLQLSSLTSEDTAVYYCAKSFPNNYYSYDDAFAYWGQGTLVTVSA
VL: DIQMTQSPASQSASLGESVTFTCLASQTIGTWLGWYQQKPGKSPQLLIYRSTTLADGVPSRFSGSGSGTKFSFKISSLQAADFASYYCQQLYSAPYTFGGGTKLEIR
notes: No own label printed; also called chimeric 67E7
B4: chimeric antibody of 78C8 (antibody, V domains shown)
VH: QVQLKESGPVLVAPSQSLSITCTVSGFSLTKFGVHWIRQTPGKGLEWLGVIWAGGPTNYNSALMSRLTISKDISQSQVFLRIDSLQTDDTAMYYCAKQIYYSTLVDYWGQGTSVTVSS
VL: DVLLTQTPLSLPVSLGDQASISCRSSQNIVHSNGNTYLQWYLQKPGQSPKLLIYKVSNRFSGVPDRFSGSGSGTDFTLKISRVEAEDLGVYYCFQGSHVPFTFGAGTKLELK
notes: No own label printed; also called chimeric 78C8
B5: chimeric antibody of 76E10 (antibody, V domains shown)
VH: QVQLKESGPVLVAPSQSLSITCTVSGFSLTNYGVHWVRQPPGKGLEWLGVIWPVGSTNYNSALMSRLSIHKDNSKSQVFLRMNSLQTDDTAIYYCAKMDWDDFFDYWGQGTTLTVSS
VL: DIVMTQSQKFMSATVGGRVNITCKASQNVGRAVAWYQQKPGQSPKLLTHSASNRYTGVPDRFTGSGSGTDFTLTITNMQSEDLADYFCQQYSSYPLTFGAGTKLDLK
notes: No own label printed; also called chimeric 76E10
B6: chimeric antibody of 89A12 (antibody, V domains shown)
VH: B3 VH with F11L, K19R, F20L, E42K, V48L, A61D, K63R, Q82H, N102D
VL: B3 VL with T22S, S51A, T53S, K70N, A81E, F83L, A94G
notes: No own label printed; also called chimeric 89A12

Key:
[1] = molecular target: T1, human IL-1R1; assay: BLI (Fortebio Octet), antibody injected over antigen surface
Description: (§1) B) Molecular selectivity over mouse IL-36R and human IL-1R1 The mouse and chimeric anti-IL-36R antibodies were also injected over either a mouse IL-36R or a human IL-1R1 surface at a concentration of 100 nM. The binding signal to mouse IL-36R and to human IL-1R1 for these antibodies measured using the Fortebio Octet (Fortebio, Menlo Park, Calif.) is zero, which indicates these antibodies selectively bind to human IL-36R.

[2] = molecular target: T2, mouse IL-36R; assay: as above
Description: as §1

Row | Binder | binding result [1] | binding result [2]
1 | B1 | no binding (tested: 100 nM) | no binding (tested: 100 nM)
2 | B2 | no binding (tested: 100 nM) | no binding (tested: 100 nM)
3 | B3 | no binding (tested: 100 nM) | no binding (tested: 100 nM)
4 | B4 | no binding (tested: 100 nM) | no binding (tested: 100 nM)
5 | B5 | no binding (tested: 100 nM) | no binding (tested: 100 nM)
6 | B6 | no binding (tested: 100 nM) | no binding (tested: 100 nM)
